Measurements reported in patent US20160131656A1 (EXTERNAUTICS S P A, published 2016).

B1: FAT1 25 mer Peptide 2 (peptide)
peptide: YHVIATDKDEGPNAEISYSIEDGNE
notes: Made by chemical synthesis
B2: FAT1 25 mer Peptide 1 (peptide)
peptide: REPLYHVIATDKDEGPNAEISYSIE
notes: Made by chemical synthesis
B3: FAT1 25 mer Peptide 3 (peptide)
peptide: IQVEATDKDLGPNGHVTYSIVTDTD
notes: Made by chemical synthesis
B4: anti-FAT1 monoclonal antibody mAb91.3 (antibody, V domains shown)
VH: VQLQQSGSELVRPGASVKLSCKASGYTFTRSWMHWIKQRPGQGLEWIGNIYPGSGGTNYDEKFKSKATLTVDTSSSTAYMQLSSLTSEDSAIYYCTRSGGQRFDYWGQGTTLTVSS
VL: IVMTQSPAIMSAFSGEKVTMTCSASSSVSSMHWYQQKSSTSPKFWIYDTSKLASGVPGRFSGSGSGNSYSLTISSMEAEDVATYYCFQGSGYPFTFGGGTKLEIKR
notes: Mouse hybridoma antibody, subclass IgG1k; also called anti-FAT1 mAb91.3; the anti-FAT1 monoclonal antibody

Legend:
[1] = biological target: B4; assay: FACS competition on HCT-15 cells: mAb91.3 incubated with rising peptide concentration; blocked partner is FAT1 on the cell surface
Experimental: For Flow Cytometry analysis, cells (2×10⁴ per well) were pelleted in 96 U-bottom microplates by centrifugation at 200× g for 5 min at 4° C. and incubated for 1 hour at 4° C. with the appropriate dilutions of anti-FAT1-monoclonal antibody. The cells were washed twice in PBS-5% FCS and incubated for 20 min with the appropriate dilution of R-Phycoerythrin (PE)-conjugated secondary antibodies (Jackson Immuno Research, PA, USA) at 4° C. After washing, cells were analysed by a FACS Canto II flow cytometer (Becton Dickinson). Data were analyzed with FlowJo 8.3.3 program.

[2] = biological target: T1, FAT1 recombinant cadherin Domain 12 (amino acid 1246 to 1352) (human, UniProt Q14517 1250-1344, limits assumed); assay: SPR, Biacore T100, 25 C, FAT1 domain amine-coupled to CM5 chip, mAb91.3 injected, 1:1 Langmuir model
T1 construct: Recombinant form purified from E. coli, used in ELISA, SPR and Western blot; Any tag is not described; also called FAT Domain 12
T1 sequence: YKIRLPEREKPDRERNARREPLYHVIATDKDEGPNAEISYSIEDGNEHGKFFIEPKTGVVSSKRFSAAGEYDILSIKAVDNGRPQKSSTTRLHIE
Experimental: (§1) The kinetics of association and dissociation and the Dissociation constants of the anti-FAT1 mAb91.3 were determined using Surface Plasmon Resonance Analysis. Experiments were performed at 25° C. with a BIACORE T100 instrument (Biacore A B, Uppsala, Sweden). The recombinant FAT1 proteins were immobilised on a carboxymethylated dextran-coated (CM5) sensor chip by amine coupling. Briefly, a mixture of 0.2 M 1-ethyl-3-[…]-carbodiimide (EDC) and 0.05 M N-hydroxysuccinimide (NHS) was used for sensor chip surface activation. Proteins pre-concentrated in 0.01 M sodium acetate pH 3.5 were injected at concentration ranging from 2.5 and 5 μg/ml for 10 min and then 1 M ethanolamine pH 8.5 was used to block any remaining activated groups. mAb91.3 was diluted in HBS-EP+buffer at different concentrations from 0.625 μg/ml to 5 μg/ml and injected for 120 s at a flow rate of […] on flow cell 2 and 3. HBS-EP+ buffer was run as control.

[3] = biological target: T2, FAT1 recombinant cadherin Domain 8 (amino acid 823 to amino acid 927) (human, UniProt Q14517 826-923, limits assumed); assay: as above
T2 construct: Recombinant form purified from E. coli, used in ELISA and SPR; Any tag is not described; A His6-V5 tagged version was also expressed in transfected HeLa and HEK-293T cells for Western blot; also called FAT Domain 8
T2 sequence: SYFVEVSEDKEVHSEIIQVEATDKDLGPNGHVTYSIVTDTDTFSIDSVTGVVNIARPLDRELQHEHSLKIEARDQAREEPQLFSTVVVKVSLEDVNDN
Experimental: as §1

FAT1 25 mer Peptide 3 = biological target: B3; assay: ELISA with 25 mer peptides
Experimental: (§2) For ELISA competition experiments, ELISA plates (Nunc Maxisorp) were coated with 1 μg of the FAT1 recombinant proteins in PBS (pH 7.4) at 4° C. overnight. The plates were washed, treated for 1 h at 37° C. with PBS-1% BSA, and 100 μl aliquots of mAb91.3 at (10 micrograms/ml) in PBS-0.1% Tween were added to the wells in the presence of the 25 mer peptides at concentration ranging from 0.001 to 100 micrograms/ml. After incubation for 2 h at 37° C., plates were again washed and incubated for 1 h at 37° C. with alkaline-phosphatase conjugated goat anti-mouse IgG (Sigma) diluted 1:2500 in PBS-Tween. Thereafter 100 μl of PNPP substrate (Sigma) were added to the samples and incubated for 30 min at room temperature and optical densities were read at 405 nm.

FAT1 25 mer Peptide 2 = biological target: B1; assay: ELISA with 25 mer peptides
Experimental: as §2

FAT1 25 mer Peptide 1 = biological target: B2; assay: ELISA with 25 mer peptides
Experimental: as §2

B1
binding result [1]: binds

B2
IC50 (read off the curve) [1]: ~0.5 µg/mL

B3
binding result [1]: binds

B4
Kd [2]: 18.2 nM | koff [2]: 0.00707 s⁻¹ | kon [2]: 389000 M⁻¹ s⁻¹ | Kd [3]: 9.52 nM | koff [3]: 0.00313 s⁻¹ | kon [3]: 329000 M⁻¹ s⁻¹ | binding result (FAT1 25 mer Peptide 3): binds | binding result (FAT1 25 mer Peptide 2): binds | binding result (FAT1 25 mer Peptide 1): binds
